Patent US20260250402A1 (C O INMAGENE PTE, published 2026)

How the values were obtained:
[1] = biological target: T1, human IL-7Ra expressed on CHOK1-human IL-7Ra cells (human, UniProt P16871 21-459); experiment: flow cytometry, CHOK1-human IL-7Ra cells
T1 construct: also called human IL-7Ra expressed on cell membrane; CD127
T1 sequence: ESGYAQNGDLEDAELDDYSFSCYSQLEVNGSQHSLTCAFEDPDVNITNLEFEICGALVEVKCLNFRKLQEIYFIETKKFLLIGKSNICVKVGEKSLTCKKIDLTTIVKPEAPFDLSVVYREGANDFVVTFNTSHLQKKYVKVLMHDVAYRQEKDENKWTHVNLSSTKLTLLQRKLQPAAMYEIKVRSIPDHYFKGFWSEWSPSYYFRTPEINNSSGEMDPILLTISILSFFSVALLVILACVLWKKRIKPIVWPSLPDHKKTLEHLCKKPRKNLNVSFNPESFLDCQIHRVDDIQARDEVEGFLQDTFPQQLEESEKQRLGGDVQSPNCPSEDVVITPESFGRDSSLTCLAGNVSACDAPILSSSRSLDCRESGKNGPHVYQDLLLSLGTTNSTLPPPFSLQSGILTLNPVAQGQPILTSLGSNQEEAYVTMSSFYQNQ

[2] = biological target: T2, Human his-tag IL-7Ra protein (human, UniProt P16871 21-239); experiment: SPR Biacore 8K, antibody Fc-captured, human his-tag IL-7Ra analyte, 1:1 model
T2 construct: Construct not described; Position of the tag unknown; also called IL-7Ra (Biacore analyte); not shown: his tag
T2 sequence: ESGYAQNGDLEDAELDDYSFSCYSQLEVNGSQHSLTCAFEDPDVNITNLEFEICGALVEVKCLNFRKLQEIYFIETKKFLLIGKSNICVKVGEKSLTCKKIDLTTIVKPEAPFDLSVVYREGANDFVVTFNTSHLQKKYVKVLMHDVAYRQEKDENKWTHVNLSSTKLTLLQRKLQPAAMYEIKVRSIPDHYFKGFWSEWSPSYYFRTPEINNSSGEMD

[3] = biological target: T3, cynomolgus IL-7Ra expressed on CHOK1-cyno IL-7Ra cells (cynomolgus, UniProt Q38IC7 21-459); experiment: flow cytometry, CHOK1-cyno IL-7Ra cells
T3 sequence: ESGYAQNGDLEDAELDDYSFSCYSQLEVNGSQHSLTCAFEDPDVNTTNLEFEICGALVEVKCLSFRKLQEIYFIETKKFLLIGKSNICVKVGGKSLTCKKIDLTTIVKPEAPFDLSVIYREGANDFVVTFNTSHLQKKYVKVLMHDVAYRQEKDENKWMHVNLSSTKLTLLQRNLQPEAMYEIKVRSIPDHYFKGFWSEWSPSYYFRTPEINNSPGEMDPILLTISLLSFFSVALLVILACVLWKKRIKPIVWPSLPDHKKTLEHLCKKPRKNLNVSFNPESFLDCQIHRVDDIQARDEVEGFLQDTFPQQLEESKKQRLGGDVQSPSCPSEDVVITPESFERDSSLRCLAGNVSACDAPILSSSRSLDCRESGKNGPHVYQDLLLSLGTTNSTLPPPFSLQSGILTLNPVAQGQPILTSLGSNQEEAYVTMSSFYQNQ

Binder | EC50 [1] [µg/mL] | Top (MFI) [1] [MFI] | Kd [2] [nM] | koff [2] [s⁻¹] | kon [2] [M⁻¹ s⁻¹] | EC50 [3] [µg/mL] | Top (MFI) [3] [MFI]
HuAb005 (antibody, V domains shown, Humanized version of cmAb011; also called humanized VL1 / humanized VH2) VH: QVQLVQSGAEVKKPGASVKVSCKASGYRFTDYELHWVRQAPGQGLEWMGGIDPKTGGTAYNQKFKGRVTMTSDRSTSTVYMELSSLRSEDTAVYYCARSGGRWYFDVWGQGTTVTVSS VL: DIVLTQSPASLAVSPGQRATITCRTSESVSIHLLHLMHWYQQKPGQPPKLLIYGASNLESGVPARFSGSGSGTDFTLTINPVEAEDTANYYCQQSIKDPYTFGGGTKVEIK | 0.188 | 22300 | 0.214 | 0.000238 | 1.11e+06 | 0.207 | 16900
HuAb019 (antibody, V domains shown, Humanized version of cmAb011; also called humanized VL3 / humanized VH5) VH: QVQLVQSGAEVKKPGASVKVSCKASGYRFTDYELHWVKQAPGQGLEWIGGIDPKTGGTAYNQKFKGKVTLTSDRSTSTVYMELSSLRSEDTAVYYCARSGGRWYFDVWGQGTTVTVSS VL: DIVMTQSPDSLAVSLGERATINCRTSESVSIHLLHLMHWYQQKPGQPPKLLIYGASNLESGVPDRFSGSGSGTDFTLTISSLQAEDVAVYYCQQSIKDPYTFGGGTKVEIK | 0.536 | 22800 |  |  |  | 0.687 | 18000
HuAb020 (antibody, V domains shown, Humanized version of cmAb011; also called humanized VL4 / humanized VH5) VH: QVQLVQSGAEVKKPGASVKVSCKASGYRFTDYELHWVKQAPGQGLEWIGGIDPKTGGTAYNQKFKGKVTLTSDRSTSTVYMELSSLRSEDTAVYYCARSGGRWYFDVWGQGTTVTVSS VL: DIVLTQSPDSLAVSLGERATINCRTSESVSIHLLHLMHWYQQKPGQPPKLLIYGASNLESGVPDRFSGSGSETDFTLTISSLQAEDVAVYYCQQSIKDPYTFGGGTKVEIK | 0.115 | 22500 |  |  |  | 0.124 | 17600
HuAb012 (antibody, V domains shown, Humanized version of cmAb011; also called humanized VL4 / humanized VH3) VH: QVQLVQSGAEVKKPGASVKVSCKASGYRFTDYELHWVKQAPGQGLEWIGGIDPKTGGTAYNQKFKGRVTMTSDRSTSTVYMELSSLRSEDTAVYYCARSGGRWYFDVWGQGTTVTVSS VL: DIVLTQSPDSLAVSLGERATINCRTSESVSIHLLHLMHWYQQKPGQPPKLLIYGASNLESGVPDRFSGSGSETDFTLTISSLQAEDVAVYYCQQSIKDPYTFGGGTKVEIK | 0.159 | 20300 |  |  |  | 0.165 | 17000
HuAb015 (antibody, V domains shown, Humanized version of cmAb011; also called humanized VL3 / humanized VH4) VH: QVQLVQSGAEVKKPGASVKVSCKASGYRFTDYELHWVRQAPGQGLEWMGGIDPKTGGTAYNQKFKGKVTLTSDRSTSTVYMELSSLRSEDTAVYYCARSGGRWYFDVWGQGTTVTVSS VL: DIVMTQSPDSLAVSLGERATINCRTSESVSIHLLHLMHWYQQKPGQPPKLLIYGASNLESGVPDRFSGSGSGTDFTLTISSLQAEDVAVYYCQQSIKDPYTFGGGTKVEIK | 0.158 | 24100 |  |  |  | 0.189 | 17400
HuAb016 (antibody, V domains shown, Humanized version of cmAb011; also called humanized VL4 / humanized VH4) VH: QVQLVQSGAEVKKPGASVKVSCKASGYRFTDYELHWVRQAPGQGLEWMGGIDPKTGGTAYNQKFKGKVTLTSDRSTSTVYMELSSLRSEDTAVYYCARSGGRWYFDVWGQGTTVTVSS VL: DIVLTQSPDSLAVSLGERATINCRTSESVSIHLLHLMHWYQQKPGQPPKLLIYGASNLESGVPDRFSGSGSETDFTLTISSLQAEDVAVYYCQQSIKDPYTFGGGTKVEIK | 0.113 | 23700 |  |  |  | 0.128 | 17100
HuAb011 (antibody, V domains shown, Humanized version of cmAb011; also called humanized VL3 / humanized VH3) VH: QVQLVQSGAEVKKPGASVKVSCKASGYRFTDYELHWVKQAPGQGLEWIGGIDPKTGGTAYNQKFKGRVTMTSDRSTSTVYMELSSLRSEDTAVYYCARSGGRWYFDVWGQGTTVTVSS VL: DIVMTQSPDSLAVSLGERATINCRTSESVSIHLLHLMHWYQQKPGQPPKLLIYGASNLESGVPDRFSGSGSGTDFTLTISSLQAEDVAVYYCQQSIKDPYTFGGGTKVEIK | 0.256 | 20500 |  |  |  | 0.241 | 17700
HuAb001 (antibody, V domains shown, Humanized version of cmAb011; also called humanized VL1 / humanized VH1) VH: QVQLVQSGAEVKKPGASVKVSCKASGYRFTDYELHWVRQAPGQGLEWMGGIDPKTGGTAYNQKFKGRVTMTRDTSTSTVYMELSSLRSEDTAVYYCARSGGRWYFDVWGQGTTVTVSS VL: DIVLTQSPASLAVSPGQRATITCRTSESVSIHLLHLMHWYQQKPGQPPKLLIYGASNLESGVPARFSGSGSGTDFTLTINPVEAEDTANYYCQQSIKDPYTFGGGTKVEIK | 0.17 | 22300 |  |  |  | 0.167 | 16000
HuAb010 (antibody, V domains shown, Humanized version of cmAb011; also called humanized VL2 / humanized VH3) VH: QVQLVQSGAEVKKPGASVKVSCKASGYRFTDYELHWVKQAPGQGLEWIGGIDPKTGGTAYNQKFKGRVTMTSDRSTSTVYMELSSLRSEDTAVYYCARSGGRWYFDVWGQGTTVTVSS VL: DIVLTQSPASLAVSPGQRATITCRTSESVSIHLLHLMHWYQQKPGQPPKLLIYGASNLESGVPARFSGSGSETDFTLTINPVEAEDTANYYCQQSIKDPYTFGGGTKVEIK | 0.152 | 20600 |  |  |  | 0.175 | 17500
HuAb006 (antibody, V domains shown, Humanized version of cmAb011; also called humanized VL2 / humanized VH2) VH: QVQLVQSGAEVKKPGASVKVSCKASGYRFTDYELHWVRQAPGQGLEWMGGIDPKTGGTAYNQKFKGRVTMTSDRSTSTVYMELSSLRSEDTAVYYCARSGGRWYFDVWGQGTTVTVSS VL: DIVLTQSPASLAVSPGQRATITCRTSESVSIHLLHLMHWYQQKPGQPPKLLIYGASNLESGVPARFSGSGSETDFTLTINPVEAEDTANYYCQQSIKDPYTFGGGTKVEIK | 0.177 | 21600 |  |  |  | 0.191 | 16700
HuAb014 (antibody, V domains shown, Humanized version of cmAb011; also called humanized VL2 / humanized VH4) VH: QVQLVQSGAEVKKPGASVKVSCKASGYRFTDYELHWVRQAPGQGLEWMGGIDPKTGGTAYNQKFKGKVTLTSDRSTSTVYMELSSLRSEDTAVYYCARSGGRWYFDVWGQGTTVTVSS VL: DIVLTQSPASLAVSPGQRATITCRTSESVSIHLLHLMHWYQQKPGQPPKLLIYGASNLESGVPARFSGSGSETDFTLTINPVEAEDTANYYCQQSIKDPYTFGGGTKVEIK | 0.0529 | 23900 |  |  |  | 0.0534 | 16700
HuAb007 (antibody, V domains shown, Humanized version of cmAb011; also called humanized VL3 / humanized VH2) VH: QVQLVQSGAEVKKPGASVKVSCKASGYRFTDYELHWVRQAPGQGLEWMGGIDPKTGGTAYNQKFKGRVTMTSDRSTSTVYMELSSLRSEDTAVYYCARSGGRWYFDVWGQGTTVTVSS VL: DIVMTQSPDSLAVSLGERATINCRTSESVSIHLLHLMHWYQQKPGQPPKLLIYGASNLESGVPDRFSGSGSGTDFTLTISSLQAEDVAVYYCQQSIKDPYTFGGGTKVEIK | 0.209 | 21100 |  |  |  | 0.244 | 17100
HuAb017 (antibody, V domains shown, Humanized version of cmAb011; also called humanized VL1 / humanized VH5) VH: QVQLVQSGAEVKKPGASVKVSCKASGYRFTDYELHWVKQAPGQGLEWIGGIDPKTGGTAYNQKFKGKVTLTSDRSTSTVYMELSSLRSEDTAVYYCARSGGRWYFDVWGQGTTVTVSS VL: DIVLTQSPASLAVSPGQRATITCRTSESVSIHLLHLMHWYQQKPGQPPKLLIYGASNLESGVPARFSGSGSGTDFTLTINPVEAEDTANYYCQQSIKDPYTFGGGTKVEIK | 0.0778 | 24600 |  |  |  | 0.0891 | 17700
HuAb018 (antibody, V domains shown, Humanized version of cmAb011; also called humanized VL2 / humanized VH5) VH: QVQLVQSGAEVKKPGASVKVSCKASGYRFTDYELHWVKQAPGQGLEWIGGIDPKTGGTAYNQKFKGKVTLTSDRSTSTVYMELSSLRSEDTAVYYCARSGGRWYFDVWGQGTTVTVSS VL: DIVLTQSPASLAVSPGQRATITCRTSESVSIHLLHLMHWYQQKPGQPPKLLIYGASNLESGVPARFSGSGSETDFTLTINPVEAEDTANYYCQQSIKDPYTFGGGTKVEIK | 0.105 | 24100 |  |  |  | 0.0988 | 18400
HuAb002 (antibody, V domains shown, Humanized version of cmAb011; also called humanized VL2 / humanized VH1) VH: QVQLVQSGAEVKKPGASVKVSCKASGYRFTDYELHWVRQAPGQGLEWMGGIDPKTGGTAYNQKFKGRVTMTRDTSTSTVYMELSSLRSEDTAVYYCARSGGRWYFDVWGQGTTVTVSS VL: DIVLTQSPASLAVSPGQRATITCRTSESVSIHLLHLMHWYQQKPGQPPKLLIYGASNLESGVPARFSGSGSETDFTLTINPVEAEDTANYYCQQSIKDPYTFGGGTKVEIK | 0.115 | 22600 |  |  |  | 0.126 | 15900
